In paper PMC9530591 (eBioMedicine, 2022) one finds Kd data, which are given here for two molecules.

The assay deals with HA1-trimer (influenza A virus H1N1 …). As to the kind of experiment: SPR. The settings on record: both partners purified.

B1: 5J8 (antibody, V domains shown)
VH: EVQLVESGPGLVKPSDILSLTCAVSGYSISSNYYWGWIRQPPGKGLEWIGSIYHSGSTYYKPSLESRLGISVDTSKNQFSLKLSFVSAADTAVYYCARHVRSGYPDTAYYFDKWGQGTLVTVSS
VL: SYVLTQPPSVSVAPGETARISCGGNNIGTKVLHWYQQTPGQAPVLVVYDDSDRPSGIPERFSGSNSGNTATLTISRVEVGDEADYYCQVWDISTDQAVFGGGTKLTVL
As usually defined, the Kd is the constant that tells how readily two partners part at equilibrium. High values mean weaker binding, low ones tighter binding. Consider B1, for which the Kd turned out to be 0.0531 nM.

B2: 32D6 (antibody, V domains shown)
VH: QVQLQESGPGLVKPSETLSLTCTVSGGSVNTGSYYWSWIRQPPGKGLEWIAYSSVSGTSNYNPSLKSRVTLTVDTSKNQFSLSVRSVTAADTAVYFCARLNYDILTGYYFFDFWGQGTLVIVSS
VL: QVELTQSPSASASLGTSVKLTCTLSSGHSTYAIAWHQQRPGKGPRYLMNLSSGGRHTRGDGIPDRFSGSSSGADRYLIISSLQSEDEADYYCQTWDAGMVFGGGTKLTVL
B2 came in with a Kd of 0.0445 nM.
